# Where two headings read alike, the source gives them in different places.
# B1: 22-D9 (antibody, V domains shown)
# VH: QVQLVQSGAEVKKPGSSVNVSCKTSGGTFNTYSINWVRQAPGQGLEWMGEIIPIFDKPNYAQKFQGRVTITADESTSTAYMELTSLRSDDTAVYYCARGTGYYYGMDVWGQGTTVTVSS
# VL: QSVLTQPPSVSGAPRQTVTISCFGSRSNIGNYPVNWYHQVPGKAPKVVVYYDDLLPSGISDRFSGYKSGTSASLTISGLRSEDEADYYCATWDDSLNVWVFGGGTKLTVL
# notes: also called bin 4
# B2: 2-A6 (antibody, V domains shown)
# VH: QVTLRESGPALVKPTQTLTLTCTFSGFSLNTRGMSVSWIRQPPGKALEWLALIDWEDDKFYRTSLMTRLTISKDIFKNQVVLTMTNVDPVDTGTYYCARTYSVGVKYFGMDVWGQGTTVTVSS
# VL: SSELTQDPAVSVALGQTVRITCQGDSLRNYYASWYRQEPGQAPILLIYGGNYRPSGIPDRFSGSSSGNTASLTITGAQAEDEADYYCNSRDSSGNHVVFGGGTKLTVL
# notes: also called bin S2
# B3: 22-E7 (antibody, V domains shown)
# VH: QVQLVESGGGVVQPGTSLRLSCAASGFTFNNYPMFWVRQAPGKGLEWLALISYDGNHKVYADSVKGRFTISRDNAKNTLYLQMHSLRAEDTALYYCASDLSGAEDSWGQGTLVTVSS
# VL: QSALTQPASVSGSPGQSITISCTGTSSDVGGYNYVSWYQQHPGKAPKLLIYEVSNRPSGVSNRFSGSKSGNTASLTISGLQAEDEADYYCSSYTSSSTWVFGGGTKLTVL
# notes: also called bin C
# B4: 22-F7 (antibody, V domains shown)
# VH: QVQLVESGGGVVQPGRSLRLSCAASGFSFTNYGMHWVRQAPGKGLEWVAVISYDGSIKYYEDSLKGRFTVSRDNSKKTLYLQMNSLRAEDTAVYYCTRERGTGIDYWGLGTLVTVSS
# VL: QSALTQPASVSGYPGQSITLSCTGTKSDIGAYNYVSWYQQHPGKAPKLMVYDVSNRPSGLSNRFSGSKSDNTASLTISGLQAEDEAHYYCSSYTTSGTVVFGGGTKVTVL
# notes: also called bin C
# B5: 23-H7 (antibody, V domains shown)
# VH: QVQLVQSGAEVKLPGASMKVSCKASGYTFSTYYMHWVRQAPGQGPEWMGVIDPSGGTTSYAQKFHDRIAMTRDTSTSTAYLELSSLRSEDMAVYYCARGGFADAVDYWGQGTLVTVSS
# VL: NFMLTQPHSVSGSPGKTVTISCTRNSGSIAGNYVQWYQQRPGSAPTTVIYEDNQRPSGVPDRFSGSIDSSSNSASLTISGLKTEDEADYYCQSYDASHLHVIFGGGTKVTVL
# notes: also called bin 2
# B6: 23-H7 Fab (Fab, V domains shown)
# VH: B5 VH
# VL: B5 VL
# Columns and labels:
# F342L = test: ELISA, heat map
# K458R = test: ELISA, heat map
# V483A = test: ELISA, heat map
# N354D = test: ELISA, heat map
# A435S = test: ELISA, heat map
# G476S = test: ELISA, heat map
# B.1.351 (S1) = test: ELISA, heat map
# W436R = test: ELISA, heat map
# K417N = test: ELISA, heat map
# N501Y = test: ELISA, heat map
# E484K = test: ELISA, heat map
# V367F = test: ELISA, heat map
# Y453F = test: ELISA, heat map
# N439K = test: ELISA, heat map
# [1] = biological target: SARS-CoV-2 Spike trimer (recombinant, wild type) (SARS-CoV-2, UniProt P0DTC2 14-1213); test: ELISA on plate-adsorbed recombinant Spike
# [2] = biological target: T1, SARS-CoV-2 Spike RBD (tagless) (SARS-CoV-2, UniProt P0DTC2 319-541)
# [3] = biological target: T1, SARS-CoV-2 Spike RBD (tagless); test: Octet BLI; tagless RBD as analyte over 23-H7-coated AHC sensors; 1:1 kinetic fit
binder,measurement,setting,value
B1,binding result,F342L,binds
same,binding result,K458R,binds
same,binding result,V483A,binds
same,binding result,N354D,binds
same,binding result,A435S,binds
same,binding result,G476S,binds
same,binding result,B.1.351 (S1),no binding
same,binding result,W436R,binds
same,binding result,K417N,binds
same,binding result,N501Y,binds
same,binding result,E484K,binds
same,binding result,V367F,binds
same,binding result,Y453F,binds
same,binding result,N439K,binds
same,EC50 (read off the curve),[1],~10 ng/mL
B2,binding result,B.1.351 (S1),no binding
B3,binding result,B.1.351 (S1),binds
B4,binding result,B.1.351 (S1),binds
B5,Kd,[2],4 nM
same,Kd,[3],4 nM
same,binding result,K458R,binds
same,binding result,V483A,binds
same,binding result,N354D,binds
same,binding result,A435S,binds
same,binding result,G476S,binds
same,binding result,B.1.351 (S1),binds
same,binding result,W436R,binds
same,binding result,K417N,binds
same,binding result,N501Y,binds
same,binding result,E484K,binds
same,binding result,V367F,binds
same,binding result,Y453F,binds
same,binding result,N439K,binds
same,EC50 (read off the curve),[1],~2 ng/mL
B6,Kd,[2],4.6 nM

# — patent publication US20230250158A1 (TALEM THERAPEUTICS, published 2023)
